Test results reported in patent US20200040059A1.

Legend:
[1] = molecular target: human PD-L1, full length, on transfected HEK293 cells (human) (UniProt Q9NZQ7); assay: flow cytometry, Fc fusion at 22.2 nM on HEK293 cells transfected with PD-L1
CD226 (human) = molecular target: T1, CD226 (human) (UniProt Q15762); assay: flow cytometry, cells expressing target, 25 nM
T1 sequence: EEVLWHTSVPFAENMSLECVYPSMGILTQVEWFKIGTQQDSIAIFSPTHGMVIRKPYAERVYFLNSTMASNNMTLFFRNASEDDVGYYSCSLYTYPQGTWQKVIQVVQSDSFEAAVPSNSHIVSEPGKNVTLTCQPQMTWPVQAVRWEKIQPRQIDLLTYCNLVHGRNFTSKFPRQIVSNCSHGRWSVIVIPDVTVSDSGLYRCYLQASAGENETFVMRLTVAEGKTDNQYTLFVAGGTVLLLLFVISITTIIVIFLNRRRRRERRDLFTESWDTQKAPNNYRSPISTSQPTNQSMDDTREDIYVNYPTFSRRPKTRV

CD96 = molecular target: T2, CD96 (UniProt P40200); assay: flow cytometry, cells expressing target, 25 nM
T2 sequence (looked up): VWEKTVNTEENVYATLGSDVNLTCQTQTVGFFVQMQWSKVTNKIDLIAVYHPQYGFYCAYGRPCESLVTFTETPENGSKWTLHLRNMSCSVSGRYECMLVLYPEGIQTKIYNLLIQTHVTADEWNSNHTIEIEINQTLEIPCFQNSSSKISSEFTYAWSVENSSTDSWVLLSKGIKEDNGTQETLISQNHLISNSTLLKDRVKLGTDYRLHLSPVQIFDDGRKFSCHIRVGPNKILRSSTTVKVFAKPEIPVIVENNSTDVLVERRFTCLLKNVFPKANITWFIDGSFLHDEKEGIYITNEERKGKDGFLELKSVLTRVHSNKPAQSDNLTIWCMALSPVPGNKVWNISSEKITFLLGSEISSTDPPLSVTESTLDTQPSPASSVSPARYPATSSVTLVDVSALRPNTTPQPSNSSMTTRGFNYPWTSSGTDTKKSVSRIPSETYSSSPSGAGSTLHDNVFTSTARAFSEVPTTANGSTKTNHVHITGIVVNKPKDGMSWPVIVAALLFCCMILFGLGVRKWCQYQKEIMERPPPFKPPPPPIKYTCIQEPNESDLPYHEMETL

[2] = molecular target: CD112R, expressed on transfected cells (human) (UniProt Q6DKI7); assay: flow cytometry on transfected cells
[3] = molecular target: CD96, expressed on transfected cells (UniProt P40200); assay: flow cytometry on transfected cells
[4] = molecular target: T3, human CD226, full length, expressed on transfected cells (human) (UniProt Q15762); assay: flow cytometry on transfected cells
T3 sequence: T1 sequence

PD-1 (human) = assay: cell-based or functional assay
[5] = molecular target: CD80 (Homo sapiens (Human)) (UniProt P33681); assay: flow cytometry, cells expressing CD80
Chain of CD80 (Homo sapiens (Human)) (P33681 35-288 limits assumed): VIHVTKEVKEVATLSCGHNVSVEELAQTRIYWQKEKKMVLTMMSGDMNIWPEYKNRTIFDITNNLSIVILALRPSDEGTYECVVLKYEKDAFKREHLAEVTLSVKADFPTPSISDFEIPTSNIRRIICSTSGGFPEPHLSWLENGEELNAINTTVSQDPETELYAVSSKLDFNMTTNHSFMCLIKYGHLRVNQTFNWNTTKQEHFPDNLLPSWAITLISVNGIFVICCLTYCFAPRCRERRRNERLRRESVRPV

Chain of CD112R, expressed on transfected cells (human) (Q6DKI7 whole entry): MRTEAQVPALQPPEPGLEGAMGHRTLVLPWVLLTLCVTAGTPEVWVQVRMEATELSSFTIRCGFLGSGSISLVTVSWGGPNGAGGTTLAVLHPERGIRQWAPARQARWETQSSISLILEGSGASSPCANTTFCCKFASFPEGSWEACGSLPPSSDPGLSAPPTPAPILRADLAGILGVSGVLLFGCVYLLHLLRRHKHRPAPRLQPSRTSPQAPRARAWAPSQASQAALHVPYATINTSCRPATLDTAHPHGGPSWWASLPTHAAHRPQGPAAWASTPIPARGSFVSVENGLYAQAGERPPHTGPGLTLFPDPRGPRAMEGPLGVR
Chain of CD112-IgV (Q92692 32-156 limits assumed): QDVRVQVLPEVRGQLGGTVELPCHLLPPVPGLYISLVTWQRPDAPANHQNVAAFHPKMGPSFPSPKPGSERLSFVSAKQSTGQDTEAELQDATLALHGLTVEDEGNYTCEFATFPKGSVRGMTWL

Row | Substance | MFI at 100 nM [2] | MFI at 100 nM [3] | MFI at 100 nM [4] | further results
1 | CD80 variant IgV-Fc E35D/A71D/L72V (from UniProt P33681 35-141) (Fc fusion) |  |  |  | MFI at 22.2 nM [1]: 13100 MFI
2 | CD80 variant IgV-Fc E35D/M47I/L70M (from UniProt P33681 35-141) (Fc fusion) |  |  |  | MFI at 22.2 nM [1]: 49100 MFI
3 | CD112-IgV (from UniProt Q92692 32-156) (Fc fusion) |  |  |  | MFI at 25 nM (CD226 (human)): 824 MFI; MFI at 25 nM (CD96): 1170 MFI
4 | CD155 variant G111R IgV-Fc (from UniProt P15151 24-139) (Fc fusion) | 2470 | 3320 | 2790 | 
5 | CD155 variant Q62F, L104E, G111R IgV-Fc (from UniProt P15151 24-139) (Fc fusion) | 1700 | 1520 | 2040 | 
6 | CD155 variant S42A IgV-Fc (from UniProt P15151 24-139) (Fc fusion) | 1730 | 1620 | 2190 | 
7 | CD155 variant S42A, L104Q, G111R IgV-Fc (from UniProt P15151 24-139) (Fc fusion) | 1820 | 1700 | 1900 | 
8 | CD155 variant S42A, S52Q, L104Q, G111R IgV-Fc (from UniProt P15151 24-139) (Fc fusion) | 1890 | 1640 | 2160 | 
9 | CD155 variant S42C IgV-Fc (from UniProt P15151 24-139) (Fc fusion) | 1680 | 1590 | 2100 | 
10 | CD155 variant S42C, S52L IgV-Fc (from UniProt P15151 24-139) (Fc fusion) | 1660 | 1480 | 2150 | 
11 | CD155 variant S42C, S52M, Q62F IgV-Fc (from UniProt P15151 24-139) (Fc fusion) | 1590 | 1480 | 2080 | 
12 | CD155 variant S42G, S52L, Q62F, L104Q IgV-Fc (from UniProt P15151 24-139) (Fc fusion) | 1660 | 1640 | 2160 | 
13 | CD155 variant S42G, S52Q, L104E, G111R IgV-Fc (from UniProt P15151 24-139) (Fc fusion) | 1710 | 1710 | 2020 | 
14 | CD155 variant S42L IgV-Fc (from UniProt P15151 24-139) (Fc fusion) | 1740 | 1620 | 2190 | 
15 | CD155 variant S42L, S52L, Q62F, L104Q IgV-Fc (from UniProt P15151 24-139) (Fc fusion) | 1730 | 2320 | 2640 | 
16 | CD155 variant S42L, S52Q, L104E IgV-Fc (from UniProt P15151 24-139) (Fc fusion) | 1750 | 1700 | 6470 | 
17 | CD155 variant S42N IgV-Fc (from UniProt P15151 24-139) (Fc fusion) | 1700 | 1690 | 1910 | 
18 | CD155 variant S42N, S52E, V57L, L104E IgV-Fc (from UniProt P15151 24-139) (Fc fusion) | 1690 | 1540 | 1740 | 
19 | CD155 variant S42Q IgV-Fc (from UniProt P15151 24-139) (Fc fusion) | 1910 | 2140 | 2230 | 
20 | CD155 variant S42V, S52E IgV-Fc (from UniProt P15151 24-139) (Fc fusion) | 1810 | 2530 | 2270 | 
21 | CD155 variant S42W, S52Q, V57L, Q62Y IgV-Fc (from UniProt P15151 24-139) (Fc fusion) | 1840 | 1700 | 2140 | 
22 | CD155 variant S42W, S52R, Q62Y, L104Q IgV-Fc (from UniProt P15151 24-139) (Fc fusion) | 1820 |  | 2300 | 
23 | CD155 variant S52M IgV-Fc (from UniProt P15151 24-139) (Fc fusion) | 1550 |  | 1900 | 
24 | CD155 variant S52M, Q62Y IgV-Fc (from UniProt P15151 24-139) (Fc fusion) | 1770 | 1650 | 2000 | 
25 | CD155 variant S52M, V57L IgV-Fc (from UniProt P15151 24-139) (Fc fusion) | 2010 | 1860 | 2430 | 

Row | Substance | MFI at 100 nM [2] | MFI at 100 nM [3] | MFI at 100 nM [4] | further results
26 | CD155 variant S52W IgV-Fc (from UniProt P15151 24-139) (Fc fusion) |  | 1710 | 2040 | 
27 | CD155 variant S52W, L104E IgV-Fc (from UniProt P15151 24-139) (Fc fusion) | 2070 | 1630 | 1910 | 
28 | PD-L2 IgV-Fc N24D (Fc fusion) |  |  |  | Fold increase over wildtype PD-L2 IgV-Fc, MLR IFN gamma (PD-1 (human)): 1.44 fold; IFN gamma levels pg/mL, MLR (PD-1 (human)): 1980 pg/mL
29 | PD-L2 IgV-Fc N32D, S67L, V89D (Fc fusion) |  |  |  | Fold increase over wildtype PD-L2 IgV-Fc, MLR IFN gamma (PD-1 (human)): 0.87 fold; IFN gamma levels pg/mL, MLR (PD-1 (human)): 1190 pg/mL
30 | PD-L2 IgV-Fc Q82R, V89D (Fc fusion) |  |  |  | Fold increase over wildtype PD-L2 IgV-Fc, MLR IFN gamma (PD-1 (human)): 1.17 fold; IFN gamma levels pg/mL, MLR (PD-1 (human)): 1620 pg/mL
31 | PD-L2 IgV-Fc S39I, V89D (Fc fusion) |  |  |  | Fold increase over wildtype PD-L2 IgV-Fc, MLR IFN gamma (PD-1 (human)): 0.95 fold; IFN gamma levels pg/mL, MLR (PD-1 (human)): 1310 pg/mL
32 | PD-L2 IgV-Fc S67L, I85F (Fc fusion) |  |  |  | Fold increase over wildtype PD-L2 IgV-Fc, MLR IFN gamma (PD-1 (human)): 0.93 fold; IFN gamma levels pg/mL, MLR (PD-1 (human)): 1280 pg/mL
33 | PD-L2 IgV-Fc S67L, I86T (Fc fusion) |  |  |  | Fold increase over wildtype PD-L2 IgV-Fc, MLR IFN gamma (PD-1 (human)): 0.74 fold; IFN gamma levels pg/mL, MLR (PD-1 (human)): 1020 pg/mL
34 | PD-L2 IgV-Fc S67L, V89D (Fc fusion) |  |  |  | Fold increase over wildtype PD-L2 IgV-Fc, MLR IFN gamma (PD-1 (human)): 0.89 fold; IFN gamma levels pg/mL, MLR (PD-1 (human)): 1230 pg/mL
35 | PD-L2 IgV-Fc V89D (Fc fusion) |  |  |  | Fold increase over wildtype PD-L2 IgV-Fc, MLR IFN gamma (PD-1 (human)): 0.85 fold; IFN gamma levels pg/mL, MLR (PD-1 (human)): 1170 pg/mL
36 | Wild Type PD-L2 IgV (Fc fusion) |  |  |  | IFN gamma levels pg/mL, MLR (PD-1 (human)): 1380 pg/mL
37 | Wildtype CD155 ECD-Fc (from UniProt P15151 21-343) (Fc fusion) | 1780 | 99000 |  | 
38 | variant PD-L1 ECD-Fc E54G, M97L, S99G (from UniProt Q9NZQ7 19-238) (Fc fusion) |  |  |  | MFI at 20 nM [5]: 51900
39 | variant PD-L1 ECD-Fc G15A, V129D (from UniProt Q9NZQ7 19-238) (Fc fusion) |  |  |  | MFI at 20 nM [5]: 128
40 | variant PD-L1 ECD-Fc I36S, M97L (from UniProt Q9NZQ7 19-238) (Fc fusion) |  |  |  | MFI at 20 nM [5]: 44600
41 | variant PD-L1 ECD-Fc I36T, M97L, V129D (from UniProt Q9NZQ7 19-238) (Fc fusion) |  |  |  | MFI at 20 nM [5]: 50900
42 | variant PD-L1 ECD-Fc K57R, S99G (from UniProt Q9NZQ7 19-238) (Fc fusion) |  |  |  | MFI at 20 nM [5]: 16300
43 | variant PD-L1 ECD-Fc K57R, S99G, R195G (from UniProt Q9NZQ7 19-238) (Fc fusion) |  |  |  | MFI at 20 nM [5]: 11000
44 | variant PD-L1 ECD-Fc M18V, I98L, L124S, P198T, L206F (from UniProt Q9NZQ7 19-238) (Fc fusion) |  |  |  | MFI at 20 nM [5]: 143
45 | variant PD-L1 ECD-Fc M18V, M97L, T176N, R195G (from UniProt Q9NZQ7 19-238) (Fc fusion) |  |  |  | MFI at 20 nM [5]: 45300
46 | variant PD-L1 ECD-Fc S99G, T185A, R195G, P198T (from UniProt Q9NZQ7 19-238) (Fc fusion) |  |  |  | MFI at 20 nM [5]: 22100
47 | variant PD-L1 ECD-Fc V93E, V129D (from UniProt Q9NZQ7 19-238) (Fc fusion) |  |  |  | MFI at 20 nM [5]: 150
48 | variant PD-L1 ECD-Fc V129D, H202Q (from UniProt Q9NZQ7 19-238) (Fc fusion) |  |  |  | MFI at 20 nM [5]: 219
49 | variant PD-L1 ECD-Fc V129D, P198T (from UniProt Q9NZQ7 19-238) (Fc fusion) |  |  |  | MFI at 20 nM [5]: 152
50 | variant PD-L1 ECD-Fc V129D, T150A (from UniProt Q9NZQ7 19-238) (Fc fusion) |  |  |  | MFI at 20 nM [5]: 142
